The values that follow come from the DeepSol protein solubility set.

The nature of this data set: soluble on expression in E. coli; label from the status in PepcDB or PDB records.
For “AAEGERAEPLRPSQSGARPCRAVGNMHFSIPETESRSGDSGGSAYVAYNIHVNGVLHCRVRYSQLLGLHEQLRKEYGANVLPAFPPKKLFSLTPAEVEQRREQLEKYMQAVRQDPLLGSSETFNSFLRRAQQETQQVPTEEVSLEVLLSNGQKVLVNVLTSDQTEDVLEAVAAKLDLPDDLIGYFSLFLVREKEDGAFSFVRKLQEFELPYVSVTSLRSQEYKIVLRKSYWDSAYDDDVMENRVGLNLLYAQTVSDIERGWILVTKEQHRQLKSLQEKVSKKEFLRLAQTLRHYGYLRFDACVADFPEKDCPVVVSAGNSELSLQLRLPGQQLREGSFRVTRMRCWRVTSSVPLPSGSTSSPGRGRGEVRLELAFEYLMSKDRLQWVTITSPQAIMMSICLQSMVDELMVKKSGGSIRKMLRRRVGGTLRRSDSQQAVKSPPLLESPDATRESMVKLSSKLSAVSLRGIGSPSTDASASDVHGNFAFEGIGDEDL”, the “soluble on expression in E. coli” value is “soluble”.

With “ADPDVLTEVPAALKRLAKYVIRGFYGIEHALALDILIRNSCVKEEDMLELLKFDRKQLRSVLNNLKGDKFIKCRMRVETAADGKTTRHNYYFINYRTLVNVVKYKLDHMRRRIETDERDSTNRASFKCPVCSSTFTDLEANQLFDPMTGTFRCTFCHTEVEEDESAMPKKDARTLLARFNEQIEPIYALLRETEDVNLAYEILEPEPTEIPALKQSKDHAATTAGAASLAGGHHREAWATKGPSYEDLYTQNVVINMDDQEDLHRASLEGKSAKERPIWLRESTVQGAYGSEDMKEGGIDMDAFQEREEGHAGPDDNEEVMRALLIHEKKTSSAMAGSVGAAAPVTAANGDDSESETSESDDDSPPRPAAVAVHKREEDEEEDDEFEEVADDPIVMVAGRPFSYSEVSQRPELVAQMTPEEKEAYIAMGQRMFEDLFE”, the “soluble on expression in E. coli” value was “not soluble”. For “AEFFPEIPKVQFEGKESTNPLAFKFYDPEEIIDGKPLKDHLKFSVAFWHTFVNEGRDPFGDPTADRPWNRYTDPMDKAFARVDALFEFCEKLNIEYFCFHDRDIAPEGKTLRETNKILDKVVERIKERMKDSNVKLLWGTANLFSHPRYMHGAATTCSADVFAYAAAQVKKALEITKELGGEGYVFWGGREGYETLLNTDLGFELENLARFLRMAVDYAKRIGFTGQFLIEPKPKEPTKHQYDFDVATAYAFLKSHGLDEYFKFNIEANHATLAGHTFQHELRMARILGKLGSIDANQGDLLLGWDTDQFPTNVYDTTLAMYEVIKAGGFTKGGLNFDAKVRRASYKVEDLFIGHIAGMDTFALGFKVAYKLVKDGVLDKFIEEKYRSFREGIGRDIVEGKVDFEKLEEYIIDKETIELPSGKQEYLESLINSYIVKTILELR” the value was “soluble”; for “AFNNNPSSVGAYSSGTYRNLAQEMGKTNIQQKVNSTFDNMFGYNNTQQLYYPYTENGVYKAHYIKAINPDEGDDIRTEGQSWGMTAAVMLNKQEEFDNLWRFAKAYQKNPDNHPDAKKQGVYAWKLKLNQNGFVYKVDEGPAPAGEEYFAFALLNASARWGNSGEFNYYNDAITMLNTIKNKLMENQIIRFSPYIDNLTDPSYHIPAFYDYFANNVTNQADKNYWRQVATKSRTLLKNHFTKVSGSPHWNLPTFLSRLDGSPVIGYIFNGQANPGQWYEFDAWRVIMNVGLDAHLMGAQAWHKSAVNKALGFLSYAKTNNSKNCYEQVYSYGGAQNRGCAGEGQKAANAVALLASTNAGQANEFFNEFWSLSQPTGDYRYYNGSLYMLAMLHVSGNFKFYNNTFN”, “soluble”; for “AFVVTDNCIKCKYTDCVEVCPVDCFYEGPNFLVIHPDECIDDALCEPECPAQAIFSEDEVPEDMQEFIQLNAELAEVWPNITEKKDPLPDAEDWDGVKGKLQHLER”, “soluble”. For “AGTYNYGEALQKSIMFYEFQRSGDLPADKRDNWRDDSGMKDGSDVGVDLTGGWYDAGDHVKFNLPMSYTSAMLAWSLYEDKDAYDKSGQTKYIMDGIKWANDYFIKCNPTPGVYYYQVGDGGKDHSWWGPAEVMQMERPSFKVDASKPGSAVCASTAASLASAAVVFKSSDPTYAEKCISHAKNLFDMADKAKSDAGYTAASGYYSSSSFYDDLSWAAVWLYLATNDSTYLDKAESYVPNWGKEQQTDIIAYKWGQCWDDVHYGAELLLAKLTNKQLYKDSIEMNLDFWTTGVNGTRVSYTPKGLAWLFQWGSLRHATTQAFLAGVYAEWEGCTPSKVSVYKDFLKSQIDYALGSTGRSFVVGYGVNPPQHPHHRTAHGSWTDQMTSPTYHRHTIYGALVGGPDNADGYTDEINNYVNNEIACDYNAGFTGALAKMYKHSGGDPIPNFKAIEKITNDEVIIKAGLNSTGPNYTEIKAVVYNQTGWPARVTDKISFKYFMDLSEIVAAGIDPLSLVTSSNYSEGKNTKVSGVLPWDVSNNVYYVNVDLTGENIYPGGQSACRREVQFRIAAPQGTTYWNPKNDFSYDGLPTTSTVNTVTNIPVYDNGVKVFGNEP” the value was “soluble”; for “AHHHHHHGSFFLKTKIIEGRGSLEYLQKEAIGFERALILASSSMKRLGFLKEAEDYLREGGVEVISIAGLPPEPTKDVVDEFLPKVREFSPEILIAIGGGSVIDMAKALKVFYDVPGISFEEVAIKSRFSKPRPVPKLKTPLIAIPSTSGAGSEVSAASVIKVGDVKYTIVTPEIAPEVAILDPRLPEGMPPEVARNSGMDVLVHAIEAYVSKASSPFTDAMAVKAAKAVLEHLEESIRGDKNAREKIHYAATMAGIAFLNARLGLVHAMSHKAAWIGPHGLVNAILLPYVMEYNMARRREKYDALARELGFDNAEELLEEIKALNERLGIGPISSYVSEEEFLAKLDEMVERAYEDPLVNFNPVEPRKEDIRRIYERAFYGD”, “soluble”; for “AHHHHHHGSKARIIYRASFDAAHAVKIEEWEELHGHTFSLEVVVEGEIKKGYVMDFLKLKKVVDGVVKELDHRNLNKIMDNPTTENIALWISERIRKNLPGDVKLKRLSLWEGNEFGVELEW”, “soluble”. For “AHHHHHHGSKGILPYVIFRSKKGTFALDAYLALRVEKVERIATLIRKAEVVKRAFDIPPNADLTLEELSEFLESSMEKIRKNAGESFDRRLKKIRRWNLARLFGIPTGHTRHIAEDEHLSREHRESLLALSILENVCRGGIEPIGYGVVDVEVKEGKVYINGKLDPVYTELIKIDMKAALALLEILSE” the value was “not soluble”. For “AHHHHHHGSKVEKYAIIFGKNPELGLYELKAFSKRFKLGVRILEIRFYGPNKSFAIIQAKEEIEKKFKWLGGALKLVRIVGEGLDTIENLEYSKLFTVSLYGKEDWKAWRKLGSQVKAVFKRKDSSKFFKPANVYSMPSELILKGFPEVKDVVFLFVDKDRVLVGETIRITNPFELKKLDVERPIVRPTLSIPPRLARIMINLSEVRKGNVLDPFCGTGTILVELLLQGLIAYGSDISQERINDARKNIEWIRKEFRIKQNASLRVCDVRRLKKCFRTRFDAIITEPYMGRPLKTKPTREEAIKIAKQLDRLYYQAFESFSDVLKRNAKVVFVFPAFNLAEGGVYRRNRPWLEELGFKVEYSILDIDEKHRIGRDIYVIRY”, the “soluble on expression in E. coli” value is “soluble”. For “AHHHHHHGSLVVKDLNVEYDNVKVLKGISFALNSGEKAIILGTNGAGKTTLLKSLLGLIPIKSGKIQICGKPYEKVVGEKKVSTNLESVYKLVYSIKVSELIDLYCDLKEIPSQQILNFIKEMKLEHILEKKFYNLSSGEKKCLTNLLAFFTDSKLILLDEPFEGLDPWRTNKTVEILNSLKSSIIMTTHRLDILSKFSTFKVYFLFNGHLYGPIRSASDLVNCYVTFSDIEEGESDIVLRIQGDKKNVILTRRPIGQKISDYASIDEIYRVMLE” the value was “not soluble”. For “AHHHHHHGSRPKVGVLLKMKREALEELEKYAEVEVIPYPSEEELKNKIHEFDGIIVSPVTKITKDVLEKAERLKVISCHSAGYDHIDVEEATRKGIYVTKVSGLLSEAVAEFAVGLLINLMRKIHYADKLIRRGEWESHVKIWTGFKGIESLYGKKVGILGMGAIGKAIARRLIPFGVELYYWSRHRKVDVESELHATYMDIDELLEKSDIVILALPLTKDTYHIINEERVKKLEGKYLVNIGRGALVDERAITEAIKQGKLKGYATDVFENEPVREHELFKYEWETVLTPHYAGLAVEAQEDVGFRAVENLISIFRGIVPEDLVNKEVLKIRPIESVKML” the value was “not soluble”.
